We go through seven substances from article PMC6446281.

The target in assay [1] is HA-SUMO3 (UniProt P55854). The experiment in a line: co-IP (IP anti-HA, WB anti-GFP) with densitometric analysis. As to conditions: 293 T cells cotransfected with GFP-INwt/mut and HA-SUMO3; parent: est. 1.0; read off a plot.
For assay [2], the target named is GFP-IN 3VI mutant (V72A/I73A, I200A/V201A, V259A/V260A) (HIV-1). The experiment in a line: co-IP.
Assay [3] concerns the target HA-SUMO3 (UniProt P55854). The experiment in a line: co-IP; 293T cells cotransfected with GFP-INwt/mut and HA-SUMO2 or HA-SUMO3, 40 h; lysis buffer 20 mM Tris-HCl pH 7.5, 100 mM NaCl, 0.5% NP-40, 0.5 mM EDTA; immunoprecipitated with anti-HA, blotted with anti-GFP; densitometry with GFP-INwt set as 100%.
Assay [4] deals with M1 + M2 and M1 + M3 mutants. The experiment in a line: co-IP; 293T cells cotransfected with GFP-INwt/mut and T7-LEDGF/p75, T7-Ku70 or HA-Ubc9; immunoprecipitated with rabbit anti-GFP, blotted with anti-T7 or anti-HA.
Assay [5] has as its target M2 and M3. The assay is described as above.

Sequence of T7-Ku70 (P12956 whole entry): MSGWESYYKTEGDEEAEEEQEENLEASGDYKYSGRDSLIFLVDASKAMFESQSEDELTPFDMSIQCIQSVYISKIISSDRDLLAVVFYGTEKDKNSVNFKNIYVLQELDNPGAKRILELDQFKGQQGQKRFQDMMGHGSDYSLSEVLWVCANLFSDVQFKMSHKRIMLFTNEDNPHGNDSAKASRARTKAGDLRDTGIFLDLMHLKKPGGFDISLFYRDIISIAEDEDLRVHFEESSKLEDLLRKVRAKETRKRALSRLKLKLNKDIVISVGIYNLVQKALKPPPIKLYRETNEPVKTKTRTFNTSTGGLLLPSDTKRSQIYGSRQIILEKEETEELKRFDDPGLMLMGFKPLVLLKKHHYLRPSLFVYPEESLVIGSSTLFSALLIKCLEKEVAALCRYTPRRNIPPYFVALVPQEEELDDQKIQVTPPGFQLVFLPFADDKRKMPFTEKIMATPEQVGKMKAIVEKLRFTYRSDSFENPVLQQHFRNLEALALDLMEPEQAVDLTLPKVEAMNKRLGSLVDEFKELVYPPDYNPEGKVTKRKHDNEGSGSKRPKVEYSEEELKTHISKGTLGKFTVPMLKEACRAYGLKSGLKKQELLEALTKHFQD

For “GFP-IN wild type (HIV-1 integrase, codon-optimized, fused to AcGFP) V72A; I73A”, the ratio to parent in assay [1] came out at 1.2.
In assay [2], “T7-Ku70 (from UniProt P12956 1-609) (natural protein)” registered a fold change in binding against INwt of 2 fold.
GFP-IN mutant M2 (I200A/V201A) (enzyme) gave a percent reduction in binding against GFP-INwt in assay [3] of 80%.
Take “GFP-IN wild type (HIV-1 integrase, codon-optimized, fused to AcGFP) K46R; K136R; K244R”: the ratio to parent in assay [1] turned out to be 1.1.
In turn, GFP-IN mutant M3 (V259A/V260A) (enzyme) had a percent reduction in binding against GFP-INwt in assay [3] of 67%.
Regarding “GFP-IN wild type (HIV-1 integrase, codon-optimized, fused to AcGFP) V72A; I73A; I200A; V201A; V259A; V260A”, the ratio to parent in assay [1] is 0.01.
For the substance “T7-LEDGF/p75 (lens-epithelium-derived growth factor) (from UniProt O75475 1-530) (natural protein)”, the percent of the binding of INwt in assay [4] was 10 to 20%; in assay [5], 40 to 60%; in assay [2], below 10%.
